Consider one molecule from patent US20140243256A1 (ADMINISTRATORS OF THE TULANE EDUCATIONAL FUND, published 2014).

The experiment deals with T1, Pichinde virus (PICV) glycoprotein spikes on purified virus (Pichinde virus (CoAn 3739), UniProt P03540 59-273; P03540 2-58).
T1 construct: also called monomeric or oligomeric glycoproteins; GPC
T1 sequence 1: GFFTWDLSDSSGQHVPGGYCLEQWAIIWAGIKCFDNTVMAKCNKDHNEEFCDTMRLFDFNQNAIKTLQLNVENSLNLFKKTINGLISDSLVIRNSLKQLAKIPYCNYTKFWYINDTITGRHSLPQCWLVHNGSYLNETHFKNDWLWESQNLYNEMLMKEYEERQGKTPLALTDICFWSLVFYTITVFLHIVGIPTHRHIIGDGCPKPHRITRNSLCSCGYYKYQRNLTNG
T1 sequence 2: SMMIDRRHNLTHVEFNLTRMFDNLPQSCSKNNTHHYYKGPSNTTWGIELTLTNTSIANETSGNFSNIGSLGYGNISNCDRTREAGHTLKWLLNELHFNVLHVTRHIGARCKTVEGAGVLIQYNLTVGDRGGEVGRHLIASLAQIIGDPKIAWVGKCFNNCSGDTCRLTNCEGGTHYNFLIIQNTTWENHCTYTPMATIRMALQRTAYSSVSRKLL
T1 sequence 3: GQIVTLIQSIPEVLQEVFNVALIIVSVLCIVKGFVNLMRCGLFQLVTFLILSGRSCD
As to the kind of experiment: glutaraldehyde crosslinking of PICV with peptide.

As for LNLFKKTINGLISDSLVIR (TAMRA conjugated (position of the dye not stated), also called TAMRA-peptide) [TAMRA-conjugated Peptide 1], the binding result is given as “no binding”.
